This note sets out measurements from patent publication US20240254250A1 (HARPOON THERAPEUTICS, published 2024).

This experiment addresses 253BH10 trispecific protein. The experiment in a line: affinity measurement, method not stated.

253BH10 trispecific protein, sequence (chain, as listed by the source limits assumed, form in doubt): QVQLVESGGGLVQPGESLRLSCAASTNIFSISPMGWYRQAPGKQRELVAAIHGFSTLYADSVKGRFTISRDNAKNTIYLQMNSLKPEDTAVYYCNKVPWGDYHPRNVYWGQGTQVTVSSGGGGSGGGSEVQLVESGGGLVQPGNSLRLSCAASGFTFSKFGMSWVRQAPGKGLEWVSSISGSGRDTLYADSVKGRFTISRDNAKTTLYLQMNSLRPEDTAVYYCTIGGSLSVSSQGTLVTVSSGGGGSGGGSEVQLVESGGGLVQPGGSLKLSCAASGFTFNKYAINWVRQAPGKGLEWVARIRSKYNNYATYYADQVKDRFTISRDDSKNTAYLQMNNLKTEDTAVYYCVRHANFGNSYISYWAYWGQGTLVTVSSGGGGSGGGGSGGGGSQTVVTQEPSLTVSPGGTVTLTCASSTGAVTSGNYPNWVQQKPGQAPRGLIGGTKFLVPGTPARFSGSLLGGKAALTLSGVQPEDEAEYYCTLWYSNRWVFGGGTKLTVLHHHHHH

B1: human BCMA protein (receptor)
chain: MLQMAGQCSQNEYFDSLLHACIPCQLRCSSNTPPLTCQRYCNASVTNSVKGTNA
With B1, binding was characterised by a dissociation constant (Kd) of 27.7 nM.
